# Measured values published in paper PMC9584909, “Atomic resolution protein allostery from the multi-state structure of a PDZ domain” (Nature Communications, 2022).
# T1: PDZ2 domain of human tyrosine phosphatase 1E (hPTP1E) (human, UniProt Q12923 1361-1456)
# T1 construct: PDZ2 domain of human tyrosine phosphatase 1E (hPTP1E); Uniformly 15N- or 15N,13C-enriched for NMR; also called apo PDZ2; holo PDZ2; source: E. coli BL21 (DE3), purified (Ni-NTA, tag cleaved with HRV-3C protease, second Ni-NTA pass); not shown: polyhistidine, N-terminal, cleaved
# T1 sequence: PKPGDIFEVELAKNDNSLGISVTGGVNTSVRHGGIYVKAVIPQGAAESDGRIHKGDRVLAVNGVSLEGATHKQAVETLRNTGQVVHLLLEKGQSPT
# Target: T1, PDZ2 domain of human tyrosine …
# Assay: NMR titration; [1H,15N]-HSQC of uniformly 15N-enriched PDZ2, free and with the peptide in twofold excess; 298 K; 150 mM sodium chloride, 50 mM phosphate buffer pH 6.8; chemical shift perturbation
# Settings: both partners purified
binder,measurement,value
"Ac-ENEQVSAV-OH (the eight C-terminal residues of Ras-associated / Rap guanine nucleotide exchange factor 2 (RA-GEF2); also called RA-GEF2 peptide; source: synthetic peptide, bought: BACHEM)",binding result,binds
